Four molecules from PMC8430995 can be followed below.

This assay concerns the target Akt WT (transfected), P31749. Kind of assay: co-immunoprecipitation (K8/K18 IP, Akt immunoblot, quantified). As to conditions: chain shown with the change, BHK-21 cells transfected with Akt WT, parent: est. 1.0, read off a plot.

Numbering of substitutions follows the chain as printed. Names may count otherwise.

Sequence of Akt WT (transfected), P31749 (P31749 whole entry): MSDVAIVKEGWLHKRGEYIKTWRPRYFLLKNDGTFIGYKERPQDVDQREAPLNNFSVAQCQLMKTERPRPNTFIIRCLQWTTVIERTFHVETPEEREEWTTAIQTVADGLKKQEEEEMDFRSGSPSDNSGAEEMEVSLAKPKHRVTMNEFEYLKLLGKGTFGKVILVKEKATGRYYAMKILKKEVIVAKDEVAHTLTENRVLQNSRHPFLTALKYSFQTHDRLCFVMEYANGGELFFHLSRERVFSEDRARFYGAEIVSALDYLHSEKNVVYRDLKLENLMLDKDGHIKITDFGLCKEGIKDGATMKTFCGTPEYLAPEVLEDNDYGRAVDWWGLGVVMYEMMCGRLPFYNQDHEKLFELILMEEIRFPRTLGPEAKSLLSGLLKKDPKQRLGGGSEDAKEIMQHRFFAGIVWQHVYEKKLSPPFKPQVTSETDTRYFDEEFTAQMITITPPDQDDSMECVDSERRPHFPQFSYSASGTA

B1: K8 WT/K18 WT (transfected), P05787;P05783 K8:G434S (protein)
chain 1: MSIRVTQKSYKVSTSGPRAFSSRSYTSGPGSRISSSSFSRVGSSNFRGGLGGGYGGASGMGGITAVTVNQSLLSPLVLEVDPNIQAVRTQEKEQIKTLNNKFASFIDKVRFLEQQNKMLETKWSLLQQQKTARSNMDNMFESYINNLRRQLETLGQEKLKLEAELGNMQGLVEDFKNKYEDEINKRTEMENEFVLIKKDVDEAYMNKVELESRLEGLTDEINFLRQLYEEEIRELQSQISDTSVVLSMDNSRSLDMDSIIAEVKAQYEDIANRSRAEAESMYQIKYEELQSLAGKHGDDLRRTKTEISEMNRNISRLQAEIEGLKGQRASLEAAIADAEQRGELAIKDANAKLSELEAALQRAKQDMARQLREYQELMNVKLALDIEIATYRKLLEGEESRLESGMQNMSIHTKTTSGYAGGLSSAYGGLTSPSLSYSLGSSFGSGAGSSSFSRTSSSRAVVVKKIETRDGKLVSESSDVLPK
chain 2: MSFTTRSTFSTNYRSLGSVQAPSYGARPVSSAASVYAGAGGSGSRISVSRSTSFRGGMGSGGLATGIAGGLAGMGGIQNEKETMQSLNDRLASYLDRVRSLETENRRLESKIREHLEKKGPQVRDWSHYFKIIEDLRAQIFANTVDNARIVLQIDNARLAADDFRVKYETELAMRQSVENDIHGLRKVIDDTNITRLQLETEIEALKEELLFMKKNHEEEVKGLQAQIASSGLTVEVDAPKSQDLAKIMADIRAQYDELARKNREELDKYWSQQIEESTTVVTTQSAEVGAAETTLTELRRTVQSLEIDLDSMRNLKASLENSLREVEARYALQMEQLNGILLHLESELAQTRAEGQRQAQEYEALLNIKVKLEAEIATYRRLLEDGEDFNLGDALDSSNSMQTIQKTTTRRIVDGKVVSETNDTKVLRH
Take B1: the ratio to parent (K18 WT and the K8 mutant) was 1.2.

B2: K8 WT/K18 WT (transfected), P05787;P05783 K8:R302C (protein)
chain 1: B1 chain 1 with R302C, S434G
chain 2: B1 chain 2
For B2, the ratio to parent (K18 WT and the K8 mutant) was 1.8.

B3: K8 WT/K18 WT (transfected), P05787;P05783 K18:D238E; K18:D396E (protein)
chain 1: B1 chain 1 with S434G
chain 2: B1 chain 2 with D238E, D397E
For the molecule B3, under “K8 WT and the K18 mutant”, the ratio to parent was 1.2.

B4: K8 WT/K18 WT (transfected), P05787;P05783 K8:G62C (protein)
chain 1: B1 chain 1 with G62C, S434G
chain 2: B1 chain 2
As for B4, the ratio to parent (K18 WT and the K8 mutant) was found to be 1.7.
